test: soluble on expression in E. coli; label from the status in PepcDB or PDB records

Sequence	soluble on expression in E. coli
YHSTDGDTILVGKNNKQNDYLTNKKARKNHLWFHTKDIPGSHVVILNESPSETTIKEAAMLAGYFSKAGSSAQIPVDYTEIRHVHK	not soluble
MGSDKIHHHHHHMHIRKYDHDYSRRFFMEQAAKGIATAGVLGPLWPMIANSADITKAYPDELMSIDAWSKGKIKTGDFITAENVDIVKDLLDPVAYQEVKTMGRRIRIVPTTKDVTRMFPHEYLEATLRNQGKAKFDAGGNIVSPDGKPWIGGNPFPDAKTGVEVAANLTLCWGRHDNSIYAIRDWEIAPDGSQSYQYDFAWVEENSVARAQAKSFPGGEDKLRYQAVFFTSPVDVKGTSYLSTWYYDQRKFPDLSGYLPAFKRVRKFPTNQRFEPLVAGVNFYLSDAWASGDPMLTWGNYKIVGRGPMLGAQSQTWYGDHPNWERPVHGGPKGITFFDTNMELCPDVVVFEAEPVGYPRAPVSKKRVWVDTRNMMFVAYVTYDRRGDLFKSFEPQFSLYEKGDKKLMDGSHTAWSWTAVTCHNIQDGRMTRFLQTKSIAGGVSQGYNVEGTFDKYLTEQALQRLGT	not soluble
NRFIGYIQVACCCLLLCASCVRDGMDEDCNSYVRFVYDYNLEYIDLFHKQATKMNLYVFDEKGVFVTELKEESGAFAPDYLMTLPGAMAGRRYIFVAWSGLYGESYDKVTLTPGVSTLEDLEVSVNNLKTRIGGGVVDRELHLLWHGKQTEVSPQYNNDITTVSLLKNTKKFRIIMQMLDDSSIHVDDYDFRIISPNGRYNHENGLLGDETDEKVEYTAYHTEDDPETGAIAELNTLRLMTDTENRLVITHKSSGNVILDIPLNKYLNALRLQQYADIPLQEYLDRADKHGIILFFKGMDGNGNYISVDVQINGWLIRKQEVD	not soluble
MIRAFLVVALASVAVFSAPIPEVPQNFDDIPAEYKGLIPAEVAEHLKAITAEEKAALKELAQNHKEYKTEEEFKAALKEKSPSLYEKAGKLEALLTAKFEKLDATAQALVKKIIAKGRELHQQYLAGDKPTLDSLKELAKGYIAEYKALSDDAKATITAEFPILTGFFQNEKIQAIVGQYVN	not soluble
MSLVTLKDIAAEAGVSIMTVSNVINGNHSKVSKNTIEKIEKIIQKYNYVPNLTARSLTAKSSKIIGIIVPIKGSFNNLFKDPYISELFGIIQNVVRENGYYLMVRSVKDVSDISALLKNWNMDGAIFLMPDYDNLIYSILKENKLPMVFLDSYSKIDNIISVGINDYKGGYIATRYLINNGHRKILFAGPCHKDGIPIPQIIKRLEGYKDALLESNIEFNESLIVDVEPNYEVGINLGRSICNKEFDVTAVFTTADIMGIGIIEGAKLNGKIVPNDLSVIGFDNLLPSVYVTPKLTTISQDIESKATKAVDLLIEYIEKGSVSNNKITLDVELVERQSVGQLSNEGHHHHHH	soluble
MARSLLLPLQILLLSLALETAGEEAQGDKIIDGAPCARGSHPWQVALLSGNQLHCGGVLVNERWVLTAAHCKMNEYTVHLGSDTLGDRRAQRIKASKSFRHPGYSTQTHVNDLMLVKLNSQARLSSMVKKVRLPSRCEPPGTTCTVSGWGTTTSPDVTFPSDLMCVDVKLISPQDCTKVYKDLLENSMLCAGIPDSKKNACNGDSGGPLVCRGTLQGLVSWGTFPCGQPNDPGVYTQVCKFTKWINDTMKKHR	soluble
SDFVNNLDTDTSLSILSCLDDPSDIVRASAVSRSWRQFVVKYSLSKNLCLKLFHQLSNVDHIIETSNDRNGESSEAGSSSLMDTRLLEKEHRAFALLARGCMSSPIESCIADAIRASSTDNYPVESILNTLEKRDRIGRTPSYWSSTGQHKTTVPESLLYKLIGDLCLITEVSIHPFQAYFQRGHPIYSSHYVRFRLGHEKDNSPHYNNSQDKKGEPGKSSIESNYVWTYTSQEFSMAQENRLQSFQLPEPVLCIGGYLLVEFLGRVQTQEMDGQYYICVSHVKVEGRSLAKSFRVENVDDNGKFGLKVLSYNDPKKMEEMDAEAGQDMDAEAGQSQLRNLEQLLNLLHRHPLDVVDYVWPDESDDEYAESEDEAEP	soluble
MGSDKIHHHHHHENLYFQGMLNFTVGPVMSSEEVRAIGAEQVPYFRTTEFSSTMLENEKFMLEYAKAPEGSKAVFMTCSSTGSMEAVVMNCFTKKDKVLVIDGGSFGHRFVQLCEIHEIPYVALKLEHGKKLTKEKLYEYDNQNFTGLLVNVDETSTAVLYDTMMIGEFCKKNNMFFVCDCVSAFLADPFNMNECGADVMITGSQKVLACPPGISVIVLAPRGVERVEKSKVRTMYFDLKDALKNQERGQTPFTPAVGILLQINERLKEIKKHGGADAEVARIASQAADFRAKIKDLPFELVSESPANGVTSVHPTTANAYDIFLKLKDEYGIWICPNGGEMKDTIFRVGHIGALTHEDNTTLVNAFKDLQKRNLL	soluble

From the DeepSol protein solubility set
